We go through ten molecules from US20090136495A1 (Eli Lilly, published 2009).

To fix the notation:
T1: cynomolgus monkey hepcidin-25 (cynomolgus monkey, UniProt A7XEI3 60-84, not fully specified)
T1 construct: mature; also called mature cynomolgous monkey hepcidin
T1 peptide: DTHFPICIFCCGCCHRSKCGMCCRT

T2: mouse hepcidin-25 (mouse, UniProt Q9EQ21 59-83)
T2 construct: mature
T2 peptide (looked up): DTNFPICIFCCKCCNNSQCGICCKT

T3: rat hepcidin-25 (rat, UniProt Q99MH3 60-84)
T3 construct: mature
T3 peptide (looked up): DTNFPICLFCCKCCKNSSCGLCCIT

T4: human hepcidin-25 (human, not fully specified)
T4 construct: also called human mature hepcidin
T4 peptide: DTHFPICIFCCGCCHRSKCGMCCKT

B1: Mab 3.23 (antibody, human IgG4 S228P, kappa, V domains shown)
VH: QVQLVQSGAEVKKPGSSVKVSCKASGYTFLIYPISWVRQAPGQGLEWMGNFHPYLGVTNYVEKFKGRVTITADKSTSTAYMELSSLRSEDTAVYYCARGGTGSFDYWGQGTTVTVSS
VL: DIQMTQSPSSLSASVGDRVTITCSASSRVSSTYLFWYQQKPGKAPKLLIYRTSPLASGVPSRFSGSGSGTDFTLTISSLQPEDFATYYCQQWSGYPFVFGGGTKVEIKR
B2: Mab 3.8 (antibody, human IgG4, V domains shown)
VH: B1 VH with V61L
VL: B1 VL with V98T
notes: Human engineered Mab, human IgG4
B3: Mab Hu22 (antibody, human IgG4 S228P, kappa, V domains shown)
VH: B1 VH with L30T, V57D, V61N
VL: B1 VL with P54T, V98T
B4: Fab 3.12 (Fab, V domains shown)
VH: B1 VH with V61L
VL: DIQMTQSPSSLSASVGDRVTITCSASSRVSSTYLFWYQQKPGKAPKLLIYRTSTLTSGVPSRFSGSGSGTDFTLTISSLQPEDFATYYCQQWSGYPFVFGGGTKVEIK
notes: Fab with human kappa, from E. coli periplasm; frameworks O2 and VH1-69
B5: Fab 3.23 (Fab, V domains shown)
VH: B1 VH
VL: B4 VL with T54P, T56A
notes: as for B4
B6: Fab Hu22 (Fab, V domains shown)
VH: B1 VH with L30T, V57D, V61N
VL: B4 VL with T56A, V98T
notes: as for B4
B7: Fab 1.7 (Fab, V domains shown)
VH: B1 VH with L30T, V57D, N59R
VL: B4 VL with T56V
notes: Fab with human kappa
B8: Mab 3.12 (antibody, human IgG4 S228P, kappa, V domains shown)
VH: B1 VH with V61L
VL: B1 VL with P54T, A56T
B9: Mab L1.5 (antibody, human IgG4 S228P, kappa, V domains shown)
VH: B1 VH with V61L
VL: B1 VL with S26E, V98T

Residue numbers refer to the chain shown, from its start. Where no end group is shown, it is not given here. Bounds are passed on as bounds.

For one experiment, the target named is T1, cynomolgus monkey hepcidin-25. In words: SPR (BIAcore), captured Mab, cynomolgus monkey hepcidin-25 injected, 25 C. On the technique in general: In SPR one partner is held on a chip, and binding of the other changes the refractive index at the surface.
Procedure: (§1) Except as noted, all reagents and materials are purchased from BIAcore® AB (Upsala, Sweden). All measurements are performed at 25° C. Samples are dissolved in HBS-EP buffer (150 mM sodium chloride, 3 mM EDTA, 0.05% (w/v) surfactant P-20, and 10 mM HEPES, pH 7.4). To capture Fabs with human kappa, goat-anti-human kappa is immobilized on flow cells 1 to 4 of a CM5 sensor chip at a level of 5000-10000 response units (Rus) using an amine coupling kit. To capture Mabs with mouse IgG1, goat-anti-mouse Fc gamma is immobilized on flow cells 1 to 4 of a CM5 sensor chip at a level of 5000-10000 Rus using an amine coupling kit. To capture antibodies with human IgG4, protein A is immobilized on flow cells 1 to 4 of a CM4 sensor chip at a level of 400-700 Rus using an amine coupling kit. Fabs prepared from E. coli periplasma and Mabs prepared from mammalian cell culture are evaluated using multiple analytical cycles. […] The measurements are obtained at 25° C. and the association and dissociation rates for each cycle are evaluated using a “1:1 with mass transfer” binding model in the BLAevaluation software.
What is called Kd is the constant that tells how readily two partners part at equilibrium. For orientation: koff means a measure of how fast the partners let go of each other. What is called kon is the second-order rate constant of association. With B1, the Kd came to 0.0888 nM, the koff is 0.000577 s⁻¹ and the kon turned out to be 6.51e+06 M⁻¹ s⁻¹.
For B2, in that order: 0.00933 nM, 0.00066 s⁻¹ and 7.07e+07 M⁻¹ s⁻¹.
B3 came in with a Kd of 0.986 nM, a koff of 0.00816 s⁻¹ and a kon of 8.13e+06 M⁻¹ s⁻¹.

The target of another experiment is ferroportin C-terminally fused with green fluorescent protein (human), Q9NP59. In words: cell-based or functional assay.
Chain of ferroportin C-terminally fused with green fluorescent protein (human), Q9NP59 (Q9NP59 whole entry, the tested form may be a part): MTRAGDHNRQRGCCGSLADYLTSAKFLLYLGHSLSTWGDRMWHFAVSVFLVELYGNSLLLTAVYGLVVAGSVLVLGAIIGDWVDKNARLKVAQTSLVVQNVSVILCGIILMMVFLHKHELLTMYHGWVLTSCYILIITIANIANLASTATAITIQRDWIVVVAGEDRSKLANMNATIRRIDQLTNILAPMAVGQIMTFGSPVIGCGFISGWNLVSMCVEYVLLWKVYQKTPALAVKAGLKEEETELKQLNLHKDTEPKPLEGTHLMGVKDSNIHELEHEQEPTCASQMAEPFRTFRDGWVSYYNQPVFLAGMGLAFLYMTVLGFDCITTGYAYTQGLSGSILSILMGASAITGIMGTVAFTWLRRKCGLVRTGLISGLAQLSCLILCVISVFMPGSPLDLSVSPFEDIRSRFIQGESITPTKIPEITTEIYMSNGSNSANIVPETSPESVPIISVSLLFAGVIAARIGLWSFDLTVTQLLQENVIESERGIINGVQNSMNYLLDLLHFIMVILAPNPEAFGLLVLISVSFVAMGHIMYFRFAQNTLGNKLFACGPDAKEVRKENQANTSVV
Molecule DTHFPICIFCCGCCHRSKCGMCCKT (ends and bridges not checked; cysteine pairing not given here) [human hepcidin-25] returned a hepcidin-induced internalization and degradation of ferroportin (FPN-GFP fluorescence in HEK 293 cells), concentration of maximal effect of 0.5 µM.

In a further experiment the target is T2, mouse hepcidin-25. In words: SPR (BIAcore), captured Mab, mouse hepcidin-25 injected, 25 C.
Procedure: as §1
Molecule B1 registered a Kd of 50.1 nM, a koff of 0.192 s⁻¹ and a kon of 3.83e+06 M⁻¹ s⁻¹.
For B2, in that order: 34.6 nM, 0.124 s⁻¹ and 3.57e+06 M⁻¹ s⁻¹.
For B3, in that order: 77.6 nM, 0.126 s⁻¹ and 1.62e+06 M⁻¹ s⁻¹.

The target of a further experiment is T3, rat hepcidin-25. As to the kind of experiment: SPR (BIAcore), 25 C.
Procedure: as §1
B1: the binding result is “no binding”.
Still for that read-out and setting: next, B3: “no binding”.

A further experiment addresses T1, cynomolgus monkey hepcidin-25. In words: SPR (BIAcore), 25 C.
Procedure: as §1
In the case of B2, the “fold lower KD than for human hepcidin-25” value is above 10 fold.

For the next experiment, the target named is T4, human hepcidin-25. In words: SPR (BIAcore), Fab captured on goat anti-human kappa, human hepcidin-25 injected, 25 C.
Procedure: as §1
Molecule B4 displayed a Kd of 0.0883 nM, a koff of 0.000347 s⁻¹ and an on-rate constant (kon) of 3.94e+06 M⁻¹ s⁻¹.
For B5, in that order: 0.0788 nM, 0.000278 s⁻¹ and 3.53e+06 M⁻¹ s⁻¹.
For B6, in that order: 0.647 nM, 0.00456 s⁻¹ and 7.05e+06 M⁻¹ s⁻¹.
For B7, in that order: 0.422 nM, 0.00148 s⁻¹ and 3.8e+06 M⁻¹ s⁻¹.

The target of the next experiment is T4, human hepcidin-25. In words: SPR (BIAcore), Mab captured on protein A, human hepcidin-25 injected, 25 C.
Procedure: as §1
In turn, B1 showed a Kd of 0.0994 nM, a koff of 0.000659 s⁻¹ and a kon of 6.2e+06 M⁻¹ s⁻¹.
For B8, in that order: 0.0599 nM, 0.00022 s⁻¹ and 3.68e+06 M⁻¹ s⁻¹.
B2 had a Kd of 0.105 nM, a koff of 0.000768 s⁻¹ and a kon of 5.58e+06 M⁻¹ s⁻¹.
For B9, in that order: 0.0342 nM, 0.000182 s⁻¹ and 5.31e+06 M⁻¹ s⁻¹.
With B3, the Kd worked out at 0.764 nM, the koff was 0.00864 s⁻¹ and the kon was determined as 1.09e+07 M⁻¹ s⁻¹.
